Results taken from patent US20260274980A1 (BIOARCTIC, published 2026).

Biological target: T1, human transferrin receptor 1 (hTfR1) on cell surfaces (human, UniProt P02786 1-760)
T1 construct: Endogenous receptor on hCMEC/D3, THP-1, K562 and Ramos cells; also called CD71; endogenous hTfR1
Assay: flow cytometry on Ramos cells (hTfR1 on the surface), Fc receptors blocked, overnight at 4 °C, detection with anti-human IgG-Alexa Fluor 488
Method: Binding to hTfR1 on cells was measured on the immortalized human B lymphocyte cell line Ramos (Sigma, cat: 85030802). This cell line is known for expressing high levels of hTfR1 on the cell surface. Fcγ receptors were blocked using Fc receptor blocker (Innovex biosciences, #NB309-4X-40) for 30 min at 4° C., after which the cells were washed in PBS. The cells were seeded in a 96 well V bottom plate (#249570, Thermo Scientific Nunc), and serially diluted Gen 2A constructs were added and the plate was incubated at 4° C. overnight. The cells were washed with PBS with 1% BSA and then fixed with freshly prepared 4% formaldehyde (Thermo Scientific Pierce, #28906) diluted in PBS for 15 min at room temperature. The cells were washed with PBS containing 1% BSA, and then stained. […] Staining was carried out for 30 min at 4° C. After incubation with the detection reagent, cells were washed with PBS containing 1% BSA. The cells were finally resuspended in 200 μl PBS with 1% BSA and acquired using a BD FACSLyric flow cytometer system (BD Biosciences). Samples were analyzed using flowJo software (BD Biosciences).

T1 sequence (P02786 whole entry): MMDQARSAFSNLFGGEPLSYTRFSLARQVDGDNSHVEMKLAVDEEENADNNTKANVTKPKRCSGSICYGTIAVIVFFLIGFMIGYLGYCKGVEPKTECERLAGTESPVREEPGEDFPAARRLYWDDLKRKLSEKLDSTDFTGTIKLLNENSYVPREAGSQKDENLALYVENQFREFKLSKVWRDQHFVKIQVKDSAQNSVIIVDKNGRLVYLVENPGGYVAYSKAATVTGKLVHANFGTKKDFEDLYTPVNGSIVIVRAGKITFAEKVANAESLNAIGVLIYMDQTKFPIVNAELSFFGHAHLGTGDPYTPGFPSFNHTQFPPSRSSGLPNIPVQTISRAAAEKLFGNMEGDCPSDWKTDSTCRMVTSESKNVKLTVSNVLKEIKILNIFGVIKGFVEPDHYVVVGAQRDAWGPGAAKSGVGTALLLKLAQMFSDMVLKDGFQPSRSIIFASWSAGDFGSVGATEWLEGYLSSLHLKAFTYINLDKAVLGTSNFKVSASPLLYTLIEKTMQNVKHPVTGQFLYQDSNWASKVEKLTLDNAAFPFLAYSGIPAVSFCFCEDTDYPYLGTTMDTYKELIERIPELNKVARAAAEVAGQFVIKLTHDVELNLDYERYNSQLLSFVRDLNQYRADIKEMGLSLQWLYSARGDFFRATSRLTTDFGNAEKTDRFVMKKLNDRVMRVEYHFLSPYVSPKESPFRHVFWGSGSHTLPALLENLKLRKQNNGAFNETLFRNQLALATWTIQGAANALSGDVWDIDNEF

Binder | binding result
2A-3 #11 (bispecific antibody, human IgG1, kappa, also called Gen 2A construct #11; VL first) heavy: not shown DIVMTQAPLSLPVSLGDQASISCRSSQSIVHSNGNTYLEWYLQKPGQSPKLLIYKVSNRFSGVPDRFSGSGSGTDFTLKISRVEAEDLGIYYCFQGSHVPPTFGGGTKLEIKRTVAAPSVFIFPPSDEQLKSGTASVVCLLNNFYPREAKVQWKVDNALQSGNSQESVTEQDSKDSTYSLSSTLTLSKADYEKHKVYACEVTHQGLSSPVTKSFNRGECGGGGSDIQMTQSPSSVSASVGDRVTITCKSSQSLLYSTNQKNYLAWYQQKPGKAPKLLIYWASTRESGVPSRFSGSGSGTDFTLTISSLQPEDFATYYCQQYFIYPRTFGQGTKVEIKGGGGSGGGGSGGGGSEVQLVQSGAEVKKPGSSVKVSCKASGYIFTDYNMDWVRQAPGQGLEWIGDINPDADTTSYNEKFKGRATLTVDKSTSTAYMELSSLRSEDTAVYYCARGGYSGSSYYHPMDYWGQGTLVTVSSGGGGSGGGGSGGGGSGGGGSGGGGSDIVMTQAPLSLPVSLGDQASISCRSSQSIVHSNGNTYLEWYLQKPGQSPKLLIYKVSNRFSGVPDRFSGSGSGTDFTLKISRVEAEDLGIYYCFQGSHVPPTFGGGTKLEIKRTVAAPSVFIFPPSDEQLKSGTASVVCLLNNFYPREAKVQWKVDNALQSGNSQESVTEQDSKDSTYSLSSTLTLSKADYEKHKVYACEVTHQGLSSPVTKSFNRGEC | binds
2A-3 #13 (bispecific antibody, human IgG1, kappa, also called Gen 2A construct #13; VL first) heavy: not shown DIVMTQAPLSLPVSLGDQASISCRSSQSIVHSNGNTYLEWYLQKPGQSPKLLIYKVSNRFSGVPDRFSGSGSGTDFTLKISRVEAEDLGIYYCFQGSHVPPTFGGGTKLEIKRTVAAPSVFIFPPSDEQLKSGTASVVCLLNNFYPREAKVQWKVDNALQSGNSQESVTEQDSKDSTYSLSSTLTLSKADYEKHKVYACEVTHQGLSSPVTKSFNRGECGGGGSGGGGSGGGGSDIQMTQSPSSVSASVGDRVTITCKSSQSLLYSTNQKNYLAWYQQKPGKAPKLLIYWASTRESGVPSRFSGSGSGTDFTLTISSLQPEDFATYYCQQYFIYPRTFGQGTKVEIKGGGGSGGGGSGGGGSEVQLVQSGAEVKKPGSSVKVSCKASGYIFTDYNMDWVRQAPGQGLEWIGDINPDADTTSYNEKFKGRATLTVDKSTSTAYMELSSLRSEDTAVYYCARGGYSGSSYYHPMDYWGQGTLVTVSSGGGGSGGGGSGGGGSGGGGSGGGGSDIVMTQAPLSLPVSLGDQASISCRSSQSIVHSNGNTYLEWYLQKPGQSPKLLIYKVSNRFSGVPDRFSGSGSGTDFTLKISRVEAEDLGIYYCFQGSHVPPTFGGGTKLEIKRTVAAPSVFIFPPSDEQLKSGTASVVCLLNNFYPREAKVQWKVDNALQSGNSQESVTEQDSKDSTYSLSSTLTLSKADYEKHKVYACEVTHQGLSSPVTKSFNRGEC | binds
2A-3 #12 (bispecific antibody, human IgG1, kappa, also called Gen 2A construct #12; VL first) heavy: not shown DIVMTQAPLSLPVSLGDQASISCRSSQSIVHSNGNTYLEWYLQKPGQSPKLLIYKVSNRFSGVPDRFSGSGSGTDFTLKISRVEAEDLGIYYCFQGSHVPPTFGGGTKLEIKRTVAAPSVFIFPPSDEQLKSGTASVVCLLNNFYPREAKVQWKVDNALQSGNSQESVTEQDSKDSTYSLSSTLTLSKADYEKHKVYACEVTHQGLSSPVTKSFNRGECGGGGSGGGGSDIQMTQSPSSVSASVGDRVTITCKSSQSLLYSTNQKNYLAWYQQKPGKAPKLLIYWASTRESGVPSRFSGSGSGTDFTLTISSLQPEDFATYYCQQYFIYPRTFGQGTKVEIKGGGGSGGGGSGGGGSEVQLVQSGAEVKKPGSSVKVSCKASGYIFTDYNMDWVRQAPGQGLEWIGDINPDADTTSYNEKFKGRATLTVDKSTSTAYMELSSLRSEDTAVYYCARGGYSGSSYYHPMDYWGQGTLVTVSSGGGGSGGGGSGGGGSGGGGSGGGGSDIVMTQAPLSLPVSLGDQASISCRSSQSIVHSNGNTYLEWYLQKPGQSPKLLIYKVSNRFSGVPDRFSGSGSGTDFTLKISRVEAEDLGIYYCFQGSHVPPTFGGGTKLEIKRTVAAPSVFIFPPSDEQLKSGTASVVCLLNNFYPREAKVQWKVDNALQSGNSQESVTEQDSKDSTYSLSSTLTLSKADYEKHKVYACEVTHQGLSSPVTKSFNRGEC | binds
2A-3 #10 (bispecific antibody, human IgG1, kappa, also called Gen 2A construct #10; VL first) heavy: not shown DIVMTQAPLSLPVSLGDQASISCRSSQSIVHSNGNTYLEWYLQKPGQSPKLLIYKVSNRFSGVPDRFSGSGSGTDFTLKISRVEAEDLGIYYCFQGSHVPPTFGGGTKLEIKRTVAAPSVFIFPPSDEQLKSGTASVVCLLNNFYPREAKVQWKVDNALQSGNSQESVTEQDSKDSTYSLSSTLTLSKADYEKHKVYACEVTHQGLSSPVTKSFNRGECGGGGSGGGGSGGGGSDIQMTQSPSSVSASVGDRVTITCKSSQSLLYSTNQKNYLAWYQQKPGKAPKLLIYWASTRESGVPSRFSGSGSGTDFTLTISSLQPEDFATYYCQQYFIYPRTFGQGTKVEIKGGGGSGGGGSGGGGSEVQLVQSGAEVKKPGSSVKVSCKASGYIFTDYNMDWVRQAPGQGLEWIGDINPDADTTSYNEKFKGRATLTVDKSTSTAYMELSSLRSEDTAVYYCARGGYSGSSYYHPMDYWGQGTLVTVSSGGGGSGGGGSGGGGSGGGGSDIVMTQAPLSLPVSLGDQASISCRSSQSIVHSNGNTYLEWYLQKPGQSPKLLIYKVSNRFSGVPDRFSGSGSGTDFTLKISRVEAEDLGIYYCFQGSHVPPTFGGGTKLEIKRTVAAPSVFIFPPSDEQLKSGTASVVCLLNNFYPREAKVQWKVDNALQSGNSQESVTEQDSKDSTYSLSSTLTLSKADYEKHKVYACEVTHQGLSSPVTKSFNRGEC | binds
2A-3 #7 (bispecific antibody, human IgG1, kappa, also called Gen 2A construct #7; VH first) heavy: not shown DIVMTQAPLSLPVSLGDQASISCRSSQSIVHSNGNTYLEWYLQKPGQSPKLLIYKVSNRFSGVPDRFSGSGSGTDFTLKISRVEAEDLGIYYCFQGSHVPPTFGGGTKLEIKRTVAAPSVFIFPPSDEQLKSGTASVVCLLNNFYPREAKVQWKVDNALQSGNSQESVTEQDSKDSTYSLSSTLTLSKADYEKHKVYACEVTHQGLSSPVTKSFNRGECGGGGSGGGGSGGGGSGGGGSGGGGSEVQLVQSGAEVKKPGSSVKVSCKASGYIFTDYNMDWVRQAPGQGLEWIGDINPDADTTSYNEKFKGRATLTVDKSTSTAYMELSSLRSEDTAVYYCARGGYSGSSYYHPMDYWGQGTLVTVSSGGGGSGGGGSGGGGSDIQMTQSPSSVSASVGDRVTITCKSSQSLLYSTNQKNYLAWYQQKPGKAPKLLIYWASTRESGVPSRFSGSGSGTDFTLTISSLQPEDFATYYCQQYFIYPRTFGQGTKVEIKGGGGSGGGGSGGGGSGGGGSGGGGSDIVMTQAPLSLPVSLGDQASISCRSSQSIVHSNGNTYLEWYLQKPGQSPKLLIYKVSNRFSGVPDRFSGSGSGTDFTLKISRVEAEDLGIYYCFQGSHVPPTFGGGTKLEIKRTVAAPSVFIFPPSDEQLKSGTASVVCLLNNFYPREAKVQWKVDNALQSGNSQESVTEQDSKDSTYSLSSTLTLSKADYEKHKVYACEVTHQGLSSPVTKSFNRGEC | binds

Continued, values first:

binding result | Binder
binds | 2A-3 #9 (bispecific antibody, human IgG1, kappa, also called Gen 2A construct #9; VL first) heavy: not shown DIVMTQAPLSLPVSLGDQASISCRSSQSIVHSNGNTYLEWYLQKPGQSPKLLIYKVSNRFSGVPDRFSGSGSGTDFTLKISRVEAEDLGIYYCFQGSHVPPTFGGGTKLEIKRTVAAPSVFIFPPSDEQLKSGTASVVCLLNNFYPREAKVQWKVDNALQSGNSQESVTEQDSKDSTYSLSSTLTLSKADYEKHKVYACEVTHQGLSSPVTKSFNRGECGGGGSGGGGSDIQMTQSPSSVSASVGDRVTITCKSSQSLLYSTNQKNYLAWYQQKPGKAPKLLIYWASTRESGVPSRFSGSGSGTDFTLTISSLQPEDFATYYCQQYFIYPRTFGQGTKVEIKGGGGSGGGGSGGGGSEVQLVQSGAEVKKPGSSVKVSCKASGYIFTDYNMDWVRQAPGQGLEWIGDINPDADTTSYNEKFKGRATLTVDKSTSTAYMELSSLRSEDTAVYYCARGGYSGSSYYHPMDYWGQGTLVTVSSGGGGSGGGGSGGGGSGGGGSDIVMTQAPLSLPVSLGDQASISCRSSQSIVHSNGNTYLEWYLQKPGQSPKLLIYKVSNRFSGVPDRFSGSGSGTDFTLKISRVEAEDLGIYYCFQGSHVPPTFGGGTKLEIKRTVAAPSVFIFPPSDEQLKSGTASVVCLLNNFYPREAKVQWKVDNALQSGNSQESVTEQDSKDSTYSLSSTLTLSKADYEKHKVYACEVTHQGLSSPVTKSFNRGEC
binds | 2A-3 #14 (bispecific antibody, human IgG1, kappa, also called Gen 2A construct #14; VL first) heavy: not shown DIVMTQAPLSLPVSLGDQASISCRSSQSIVHSNGNTYLEWYLQKPGQSPKLLIYKVSNRFSGVPDRFSGSGSGTDFTLKISRVEAEDLGIYYCFQGSHVPPTFGGGTKLEIKRTVAAPSVFIFPPSDEQLKSGTASVVCLLNNFYPREAKVQWKVDNALQSGNSQESVTEQDSKDSTYSLSSTLTLSKADYEKHKVYACEVTHQGLSSPVTKSFNRGECGGGGSGGGGSGGGGSGGGGSGGGGSDIQMTQSPSSVSASVGDRVTITCKSSQSLLYSTNQKNYLAWYQQKPGKAPKLLIYWASTRESGVPSRFSGSGSGTDFTLTISSLQPEDFATYYCQQYFIYPRTFGQGTKVEIKGGGGSGGGGSGGGGSEVQLVQSGAEVKKPGSSVKVSCKASGYIFTDYNMDWVRQAPGQGLEWIGDINPDADTTSYNEKFKGRATLTVDKSTSTAYMELSSLRSEDTAVYYCARGGYSGSSYYHPMDYWGQGTLVTVSSGGGGSGGGGSGGGGSGGGGSGGGGSDIVMTQAPLSLPVSLGDQASISCRSSQSIVHSNGNTYLEWYLQKPGQSPKLLIYKVSNRFSGVPDRFSGSGSGTDFTLKISRVEAEDLGIYYCFQGSHVPPTFGGGTKLEIKRTVAAPSVFIFPPSDEQLKSGTASVVCLLNNFYPREAKVQWKVDNALQSGNSQESVTEQDSKDSTYSLSSTLTLSKADYEKHKVYACEVTHQGLSSPVTKSFNRGEC
